# T1: soluble recombinant DSG2 (Homo sapiens, UniProt Q14126)
# T1 construct: Western blot using soluble recombinant DSG2 as a probe; purchased Leinco Technologies, Inc. (St. Louis, MO)
# T1 sequence (Q14126 50-609 limits assumed): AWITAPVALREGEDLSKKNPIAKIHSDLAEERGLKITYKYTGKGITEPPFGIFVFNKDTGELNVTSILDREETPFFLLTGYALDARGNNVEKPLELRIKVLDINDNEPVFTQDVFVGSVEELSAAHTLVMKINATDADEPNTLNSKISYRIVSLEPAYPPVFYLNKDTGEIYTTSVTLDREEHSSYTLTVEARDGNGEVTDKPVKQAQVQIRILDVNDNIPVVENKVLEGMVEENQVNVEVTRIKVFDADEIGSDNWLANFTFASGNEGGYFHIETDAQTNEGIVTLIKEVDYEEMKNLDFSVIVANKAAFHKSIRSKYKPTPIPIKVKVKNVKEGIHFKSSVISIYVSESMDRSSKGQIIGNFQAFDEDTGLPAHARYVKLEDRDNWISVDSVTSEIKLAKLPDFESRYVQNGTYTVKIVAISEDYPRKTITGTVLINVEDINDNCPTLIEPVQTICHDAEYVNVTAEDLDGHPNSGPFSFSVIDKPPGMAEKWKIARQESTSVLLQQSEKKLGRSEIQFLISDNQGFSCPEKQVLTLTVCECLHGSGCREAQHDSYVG
# B1: D261N (protein)
# chain: MKVSALKEKVSALKEKVSALKEKVSALKEKVSALKEGSGGGSGGGSGGGSNSIALKNNTLWTGPKPEANCIIEYGKQNPDSKLTLILVKNGGIVNGYVTLMGASDYVNTLFKNKNVSINVELYFDATGHILPDSSSLKTDLELKYKQTADFSARGFMPSTTAYPFVLPNAGTHNENYIFGQCYYKASNGALFPLEVTVMLNKRLPDSRTSYVMTFLWSLNAGLAPETTQATLITSPFTFSYIREDD
# Biological target: T1, soluble recombinant DSG2
# Experiment: Western blot of dimeric Ad3 fiber knob mutants with soluble recombinant DSG2 as probe
# Format: binding
# Settings: dimerized knob mutants compared to JO-1
# From the text: FIG. 1A-1F. Residues found to be critically involved in binding to DSG2. FIG. 1A) Shown are the amino acid sequences of the Ad3 and Ad14p1 fiber knob. Beta sheets present in the Ad3 knob (PDB accession number 1H7Z_A) and Ad14 knob (PDB: 3F0Y_A) are indicated by lines. Black arrows indicate residues within the Ad3 fiber knob which, when mutated individually, ablate or reduce binding to DSG2. […] FIG. 1B) Schematic structure of dimeric Ad3 fiber knob mutants. The fiber knob domain and one shaft motif was fused through a flexible linker to a homodimerizing K-coil domain (41). The proteins are self-dimerizing and can be purified by His-Ni-NTA affinity chromatography. FIG. 1C-FIG. 1F) Analysis of binding of dimeric Ad3 fiber knob mutants to soluble DSG2. FIG. 1C and FIG. 1D) Coomassie staining. 10 μg of purified Ad3 fiber knob (unboiled) were loaded per lane. Trimeric forms of the fiber knobs are indicated by an arrow. The gel contained SDS and the loading buffer containing DTT, which caused the disassembly of dimers of trimeric fiber knobs as previously reported (41). FIG. 1E and FIG. 1F): Western blot using soluble recombinant DSG2 as a probe, followed by anti-DSG2-mAb and anti-mouse IgG-HRP. For comparison, JO-1 (0.5 μg/lane) is shown. The Western blots were scanned and signals were quantified.
# Western Blot: Mini-PROTEAN precast gels (BIO-RAD, Hercules, CA) with 4-15% gradient polyacrylamide were used. A total of 1 μg protein mixed with 2× loading buffer (10 mM Tris-HCl, pH6.8, 200 mM DTT, 4% SDS, 20% glycerol, 0.2% bromophenol blue) was loaded per lane. Samples were either boiled (B) for 5 min or loaded unboiled (UB). The following running buffer was used: 25 mM Tris, pH8.3, 0.192 M glycine, 0.1% SDS. After electrophoresis, proteins were transferred to nitrocellulose and incubated with recombinant human DSG2 protein and anti-DSG2 antibodies as described previously (42). The Western blots were scanned and quantified using the ImageJ 1.32 software (National Institutes of Health, Bethesda, MD). JO-1 band intensity was set as 100%. […]
molecule,measurement,value
B1,"DSG2 binding in Western blot, in words",almost completely ablated

# From patent US12466859B2, “Desmoglein 2 (DSG2) binding proteins and uses therefor” (UNIVERSITY OF WASHINGTON THROUGH ITS CENTER FOR …, priority 2013, dated 2025)
